This note sets out measurements from patent US20170137512A1 (Ablynx, published 2017).

For assay [1], the target named is T1, cyno Kv1.3 (Macaca fascicularis, UniProt P22001 1-575 (human entry)).
T1 chain: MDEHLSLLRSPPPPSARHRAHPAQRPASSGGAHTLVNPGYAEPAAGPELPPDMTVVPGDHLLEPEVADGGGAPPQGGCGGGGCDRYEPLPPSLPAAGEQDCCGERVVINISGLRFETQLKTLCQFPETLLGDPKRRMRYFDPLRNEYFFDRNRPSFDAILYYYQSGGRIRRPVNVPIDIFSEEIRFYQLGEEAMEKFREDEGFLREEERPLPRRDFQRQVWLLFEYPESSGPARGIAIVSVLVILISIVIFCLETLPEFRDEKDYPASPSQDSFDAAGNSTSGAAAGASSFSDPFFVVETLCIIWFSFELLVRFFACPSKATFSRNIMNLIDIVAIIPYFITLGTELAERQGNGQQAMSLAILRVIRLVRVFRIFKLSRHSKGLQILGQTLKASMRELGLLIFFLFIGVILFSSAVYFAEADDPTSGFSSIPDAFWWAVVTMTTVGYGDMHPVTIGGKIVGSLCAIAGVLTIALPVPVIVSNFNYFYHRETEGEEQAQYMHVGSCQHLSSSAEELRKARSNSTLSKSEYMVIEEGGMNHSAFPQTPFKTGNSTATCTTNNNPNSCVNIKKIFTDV

In assay [2] the target is T2, human Kv1.3 (Homo sapiens, UniProt P22001 1-575). Put plainly: cell-based or functional assay.
Assay [3] has as its target T2, human Kv1.3. Put plainly: cell-based or functional assay. The source holds these as a separate data set.
For assay [4], the target named is T2, human Kv1.3. Put plainly: cell-based or functional assay. This is another data set of the same source.
In assay [5] the target is T2, human Kv1.3. Put plainly: cell-based or functional assay. This is another data set of the same source.
Assay [6] addresses T3, rat Kv1.3 (Rattus norvegicus, UniProt P15384 1-525).
T3 construct: Expressed on CHO cells
Put plainly: FACS, CHO cells expressing rat Kv1.3. In general terms: Flow cytometry measures light scatter and fluorescence of single cells or particles in a stream.

Assay [7] deals with T1, cyno Kv1.3. Put plainly: FACS, CHO cells expressing cyno Kv1.3.
Assay [8] concerns the target T2, human Kv1.3. Put plainly: FACS, CHO cells expressing human Kv1.3.
Assay [9] deals with T1, cyno Kv1.3.
In assay [10] the target is T2, human Kv1.3.
The target in assay [11] is T2, human Kv1.3. Put plainly: cell-based or functional assay. This is another data set of the same source.
In assay [12] the target is T2, human Kv1.3. Put plainly: cell-based or functional assay. This is another data set of the same source.
The target of assay [13] is T2, human Kv1.3. Put plainly: cell-based or functional assay. This is another data set of the same source.
In assay [14] the target is T3, rat Kv1.3. Put plainly: FACS, CHO cells expressing rat Kv1.3. The source holds these as a separate data set.
Assay [15] concerns the target T1, cyno Kv1.3. Put plainly: FACS, CHO cells expressing cyno Kv1.3.
Assay [16] concerns the target T2, human Kv1.3. Put plainly: FACS, CHO cells expressing human Kv1.3. The source holds these as a separate data set.

Like-named read-outs stand apart in the source and are kept apart here.

T2 sequence (P22001 whole entry): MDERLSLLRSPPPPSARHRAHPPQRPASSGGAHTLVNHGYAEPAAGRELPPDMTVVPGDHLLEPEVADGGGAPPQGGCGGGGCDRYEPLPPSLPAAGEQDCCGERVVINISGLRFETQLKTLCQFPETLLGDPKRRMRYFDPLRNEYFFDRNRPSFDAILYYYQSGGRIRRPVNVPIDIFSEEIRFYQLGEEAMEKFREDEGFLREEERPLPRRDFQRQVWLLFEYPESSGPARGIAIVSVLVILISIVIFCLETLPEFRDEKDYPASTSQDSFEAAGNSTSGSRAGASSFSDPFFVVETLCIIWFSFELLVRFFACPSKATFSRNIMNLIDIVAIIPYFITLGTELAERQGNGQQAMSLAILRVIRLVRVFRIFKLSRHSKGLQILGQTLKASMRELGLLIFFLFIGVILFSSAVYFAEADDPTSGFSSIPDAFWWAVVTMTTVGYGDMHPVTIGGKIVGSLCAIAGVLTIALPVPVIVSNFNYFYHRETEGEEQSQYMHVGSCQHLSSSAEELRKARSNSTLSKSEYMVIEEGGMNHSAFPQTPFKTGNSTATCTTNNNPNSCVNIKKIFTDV

B1: A019400032 (VHH)
chain: DVQLVESGGGLVQAGGSLGLSCSASGLLFSRNSAGWYRQAPGKRREFVARIRMGGSINYADSVKGRFTVSRDNAKNMMYLQMNDLKPEDTAVYFCSGWREGFYEYWGQGTLVTVSSGGGGSGGGGSGGGGSGGGGSGGGGSGGGGSGGGGSEVQLVESGGGLVQAGGSLGLSCSASGLLFSRNSAGWYRQAPGKRREFVARIRMGGSINYADSVKGRFTVSRDNAKNMMYLQMNDLKPEDTAVYFCSGWREGFYEYWGQGTLVTVSS
In the case of B1, the IC50 (usually the concentration at which inhibition is half-maximal) in the assay with cyno Kv1.3 [1] is 0.56 nM. In the assay with human Kv1.3 [2], the “Average IC50, Kv1.3 current, IonWorks perforated patch clamp, CHL cells” value (“Average IC50, Kv1.3 current … CHL cells” for short) is 1.2 nM. Besides, in the assay with human Kv1.3 [3], the “IC50, CD25 read out, CCR7-CD45RA- T cells stimulated with anti-CD3” value (shortened to “IC50, CD25 read out … with anti-CD3”) amounted to 0.12 nM and the “IC50, IFNγ read out, CCR7-CD45RA- T cells stimulated with anti-CD3” value (shortened to “IC50, IFNγ read out … with anti-CD3”) was 0.069 nM. Besides, in the assay with human Kv1.3 [4], the “IC50, CD25 read out, T cell activation assay” value came out at 0.12 nM; the “IC50, CD25 read out, T cell activation assay, with 10 µM HSA” value amounted to 0.33 nM; the “IC50, IFNγ read out, T cell activation assay” value was found to be 0.069 nM; the “IC50, IFNγ read out, T cell activation assay, with 10 µM HSA” value is 0.086 nM.

B2: A019400009 (VHH)
chain: EVQLVESGGGLVQAGGSLGLSCSASGLLFSRNSAGWYRQAPGKQREFVARIRMGGSINYADTVKGRFTISRDNAKNTVYLQMNSLKPEDTAVYYCSSWRTGFYEYWGQGTLVTVSSGGGGSGGGGSGGGGSGGGGSGGGGSGGGGSGGGGSEVQLVESGGGLVQAGGSLGLSCSASGLLFSRNSAGWYRQAPGKQREFVARIRMGGSINYADTVKGRFTISRDNAKNTVYLQMNSLKPEDTAVYYCSSWRTGFYEYWGQGTLVTVSS
As to B2, in the assay with human Kv1.3 [5], the “Average IC50, Kv1.3 current, IonFlux automated patch clamp, HEK293H cells” value (shortened to “Average IC50, Kv1.3 current … HEK293H cells”) was found to be 0.73 nM. Besides, the “Average IC50, Kv1.3 current … CHL cells” value with human Kv1.3 [2] worked out at 0.81 nM.

B3: A019400012 (other)
chain: EVQLVESGGGLVQAGGSLGLSCSASGLLFSRNSAGWYRQAPGKQREFVARIRMGGSINYADTVKGRFTISRDNAKNTVYLQMNSLKPEDTAVYYCSSWRTGFYEYWGQGTLVTVSSGGGGSGGGGSGGGGSGGGGSGGGGSGGGGSGGGGSEVQLVESGGGLVQAGGSLSLSCTASGGTFRNFGMGWFRQAQGKEREFVAAISRTGGHTYYQDSVKGRFTISKDNAKNILSLQMNSLKPEDTAVYYCAARFRFGDGTYYYQRAFYDFWGQGTLVTVSS
The molecule B3 showed an IC50 with cyno Kv1.3 [1] of 0.5 nM. In addition, the “Average IC50, Kv1.3 current … HEK293H cells” value in the assay with human Kv1.3 [5] was 4.2 nM. In addition, the “Average IC50, Kv1.3 current … CHL cells” value in the assay with human Kv1.3 [2] was found to be 4.2 nM. In the assay with human Kv1.3 [3], the “IC50, CD25 read out … with anti-CD3” value came out at 0.31 nM and the “IC50, IFNγ read out … with anti-CD3” value was determined as 0.31 nM.

B4: A019400014 (other)
chain: EVQLVESGGGLVQAGGSLSLSCTASGGTFRNFGMGWFRQAQGKEREFVAAISRTGGHTYYQDSVKGRFTISKDNAKNILSLQMNSLKPEDTAVYYCAARFRFGDGTYYYQRAFYDFWGQGTLVTVSSGGGGSGGGGSGGGGSGGGGSGGGGSGGGGSGGGGSEVQLVESGGGLVQAGGSLGLSCSASGLLFSRNSAGWYRQAPGKQREFVARIRMGGSINYADTVKGRFTISRDNAKNTVYLQMNSLKPEDTAVYYCSSWRTGFYEYWGQGTLVTVSS
notes: Biparatopic Nanobody construct (family 1 - family 12); also called A019400003-35GS-A0194009G09; A019400011
In the assay with cyno Kv1.3 [1], B4 had an IC50 of 0.61 nM. Besides, the “Average IC50, Kv1.3 current … HEK293H cells” value in the assay with human Kv1.3 [5] is 14 nM. Also, the “Average IC50, Kv1.3 current … CHL cells” value with human Kv1.3 [2] came out at 14 nM. For the same molecule, the “IC50, CD25 read out … with anti-CD3” value with human Kv1.3 [3] is 0.11 nM. Further, the “IC50, IFNγ read out … with anti-CD3” value with human Kv1.3 [3] turned out to be 0.32 nM. Also, the EC50 (as a rule, the concentration at which the effect is half-maximal) with rat Kv1.3 [6] amounted to 0.74 nM; in the assay with cyno Kv1.3 [7], 0.41 nM; with human Kv1.3 [8] it was 1.1 nM.

B5: A0194009G09 (VHH)
VHH: EVQLVESGGGLVQAGGSLGLSCSASGLLFSRNSAGWYRQAPGKQREFVARIRMGGSINYADTVKGRFTISRDNAKNTVYLQMNSLKPEDTAVYYCSSWRTGFYEYWGQGTLVTVSS
notes: Monovalent Nanobody of family 12; not shown: triple Flag, His6 tag
Turning to B5, the IC50 with cyno Kv1.3 [9] was 9.8 nM. Moreover, the “IC50 (read off the curve)” value in the assay with human Kv1.3 [10] is about 10 nM. Moreover, in the assay with human Kv1.3 [11], the “Average IC50, Kv1.3 current … HEK293H cells” value is 8.2 nM. Further, the “Average IC50, Kv1.3 current … CHL cells” value with human Kv1.3 [12] is 37 nM. The “IC50, CD25 read out … with anti-CD3” value with human Kv1.3 [13] is 62 nM. Further, the “IC50, IFNγ read out … with anti-CD3” value with human Kv1.3 [13] was 47 nM. For the same molecule, the EC50 in the assay with rat Kv1.3 [14] was found to be 240 nM; with cyno Kv1.3 [15], 11 nM; in the assay with human Kv1.3 [16], 7.9 nM.

B6: A019400004 (other)
chain: EVQLVESGGGLVQAGGSLSLSCTASGGTFRNFGMGWFRQAQGKEREFVAAISRTGGHTYYQDSVKGRFTISKDNAKNILSLQMNSLKPEDTAVYYCAARFRFGDGTYYYQRAFYDFWGQGTQVTVSSGGGGSGGGGSGGGGSGGGGSGGGGSGGGGSGGGGSGGGGSEVQLVESGGGLVQAGGSLSLSCTASGGTFRNFGMGWFRQAQGKEREFVAAISRTGGHTYYQDSVKGRFTISKDNAKNILSLQMNSLKPEDTAVYYCAARFRFGDGTYYYQRAFYDFWGQGTQVTVSS
notes: Bivalent Nanobody construct (family 1 - family 1), expressed in Pichia; also called A019400003-40GS-A019400003
B6: it took 0.64 nM to reach half-maximal inhibition with cyno Kv1.3 [1] (IC50). The “Average IC50, Kv1.3 current … CHL cells” value with human Kv1.3 [2] is over 1000 nM. The results for the EC50 with rat Kv1.3 [6], with cyno Kv1.3 [7] and with human Kv1.3 [8] were 1.1 nM, 0.44 nM and 2.2 nM, respectively.

B7: A019400015 (VHH)
chain: EVQLVESGGGLVQAGGSLGLSCSASGLLFSRNSAGWYRQAPGKQREFVARIRMGGSINYADTVKGRFTISRDNAKNTVYLQMNSLKPEDTAVYYCSSWRTGFYEYWGQGTLVTVSSGGGGSGGGGSGGGGSGGGGSGGGGSGGGGSGGGGSEVQLVESGGGLVQAGGSLGLSCSASGLLFSRNSAGWYRQAPGKQREFVARIRMGGSINYADTVKGRFTISRDNAKNTVYLQMNSLKPEDTAVYYCSSWRTGFYEYWGQGTLVTVSSGGGGSGGGGSGGGGSGGGGSGGGGSGGGGSGGGGSEVQLVESGGGLVQAGGSLGLSCSASGLLFSRNSAGWYRQAPGKQREFVARIRMGGSINYADTVKGRFTISRDNAKNTVYLQMNSLKPEDTAVYYCSSWRTGFYEYWGQGTLVTVSS
notes: Trivalent Nanobody construct (family 12); also called A0194009G09-35GS-A0194009G09-35GS-A0194009G09
B7 gave an IC50 in the assay with cyno Kv1.3 [1] of 0.2 nM. For the same molecule, the “Average IC50, Kv1.3 current … CHL cells” value with human Kv1.3 [2] turned out to be 0.8 nM. Further, the “IC50, CD25 read out … with anti-CD3” value with human Kv1.3 [3] came to 0.059 nM. Moreover, in the assay with human Kv1.3 [3], the “IC50, IFNγ read out … with anti-CD3” value stood at 0.032 nM. The EC50 with rat Kv1.3 [6] was 0.44 nM; with cyno Kv1.3 [7] it was 0.31 nM; with human Kv1.3 [8] it was 0.66 nM.

B8: A019400003 (VHH)
VHH: EVQLVESGGGLVQAGGSLSLSCTASGGTFRNFGMGWFRQAQGKEREFVAAISRTGGHTYYQDSVKGRFTISKDNAKNILSLQMNSLKPEDTAVYYCAARFRFGDGTYYYQRAFYDFWGQGTQVTVSS
notes: Monovalent Nanobody of family 1, purified from E. coli TG1; not shown: triple Flag, His6 tag
B8 yielded a concentration for half-maximal inhibition (IC50) with cyno Kv1.3 [9] of 1.3 nM. For the same molecule, the “IC50 (read off the curve)” value with human Kv1.3 [10] was about 30 nM. Moreover, the “Average IC50, Kv1.3 current … CHL cells” value with human Kv1.3 [12] is over 1000 nM. For the same molecule, the EC50 in the assay with rat Kv1.3 [14] came out at 380 nM; with cyno Kv1.3 [15], 2.5 nM; with human Kv1.3 [16] it was 6.2 nM.
